The target of the assay is T1, IL18BP (human, UniProt O95998 31-194).
T1 construct: also called ILBP antigen
T1 sequence (looked up): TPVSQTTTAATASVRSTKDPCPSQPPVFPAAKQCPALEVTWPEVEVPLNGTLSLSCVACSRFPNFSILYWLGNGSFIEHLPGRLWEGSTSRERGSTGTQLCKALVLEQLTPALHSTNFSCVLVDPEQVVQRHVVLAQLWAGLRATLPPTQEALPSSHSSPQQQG
As to the kind of experiment: Octet (BLI), IL18BP as ligand on the biosensor, IL18 fusion as analyte. From the text: Binding of variant IL18 to IL18 receptors or IL18BP were investigated using Octet, a BioLayer Interferometry (BLI)-based method. Experimental steps for Octet generally include the following: Immobilization (capture of ligand to a biosensor); Association (dipping of ligand-coated biosensors into wells containing serial dilutions of the analyte); and Dissociation (returning of biosensors to well containing buffer) in order to determine the affinity of the test articles. A reference well containing buffer alone was also included in the method for background correction during data processing. In particular, ligands used were IL18R1, IL18R1xIL18RAP heterodimer, or IL18BP, and the analytes were IL18 fusions. Illustrative sequences for these antigens are depicted in FIGS. 1-3 (respectively for human, mouse, and cynomolgus monkey).

B1: XENP40253 (Fc fusion)
chain: YFGKLESKLSVIRNLNDQVLFIDQGNRPLFEDMTDSDSRDNAPRTIFIISMYDDSQPRGMAVTISVKSEKISTLSSENKIISFKEMNPPDNIKDTKSDIIFFQRSVPGHDNKMQFESSSYEGYFLASEKERDLFKLILKKEDELGDRSIMFTVQNEDEPKSSDKTHTCPPCPAPPVAGPSVFLFPPKPKDTLMISRTPEVTCVVVDVKHEDPEVKFNWYVDGVEVHNAKTKPREEEYNSTYRVVSVLTVLHQDWLNGKEYKCKVSNKALPAPIEKTISKAKGQPREPQVYTLPPSREEMTKNQVSLTCDVSGFYPSDIAVEWESDGQPENNYKTTPPVLDSDGSFFLYSKLTVDKSRWEQGDVFSCSVMHEALHNHYTQKSLSLSPG
heavy: QVQLQESGPGLVRPSQTLSLTCTVSGFSLTGYGVNWVRQPPGRGLEWIGMIWGDGNTDYNSALKSRVTMLKDTSKNQFSLRLSSVTAADTAVYYCARERDYRLDYWGQGSLVTVSSASTKGPSVFPLAPSSKSTSGGTAALGCLVKDYFPEPVTVSWNSGALTSGVHTFPAVLQSSGLYSLSSVVTVPSSSLGTQTYICNVNHKPSNTKVDKKVEPKSCDKTHTCPPCPAPPVAGPSVFLFPPKPKDTLMISRTPEVTCVVVDVKHEDPEVKFNWYVDGVEVHNAKTKPREEQYNSTYRVVSVLTVLHQDWLNGKEYKCKVSNKALPAPIEKTISKAKGQPREPQVYTLPPSREQMTKNQVKLTCLVKGFYPSDIAVEWESNGQPENNYKTTPPVLDSDGSFFLYSKLTVDKSRWQQGNVFSCSVMHEALHNRFTQKSLSLSPG
light: DIQMTQSPSSLSASVGDRVTITCRASGNIHNYLAWYQQKPGKAPKLLIYYTTTLADGVPSRFSGSGSGTDYTFTISSLQPEDIATYYCQHFWSTPRTFGQGTKVEIKRTVAAPSVFIFPPSDEQLKSGTASVVCLLNNFYPREAKVQWKVDNALQSGNSQESVTEQDSKDSTYSLSSTLTLSKADYEKHKVYACEVTHQGLSSPVTKSFNRGEC
notes: also called K53D single substitution variant; K53D
For B1, the binding result is given as “no binding”.

The values above are taken from patent US20230146665A1 (Xencor, published 2023).
